Entries after “also recorded” stand apart in the source; their conditions may differ.
Legend:
BMVEC-b = experiment: Thymidine incorporation in BMVEC-b exposed to SCF; format: cell-based, bovine; conditions: basal medium
Experimental: (§1) After ECs (3×10^3/well) were adhered to 96-well gelatin-coated plates (BD Discovery Labware, Bedford, Mass.), the EC growth medium was replaced by SCF ([…]) (R&D Systems, Minneapolis, Minn.) suspended in treatment medium (basal medium with 0.1% BSA) for an additional 48 hr (HUVEC and HMVEC-d) or 72 hr (BMVEC-b) with renewal of medium at 24 hr intervals. ECs were cultured for 4 hr in 0.25 μCi of [^3H]thymidine (Amersham Pharmacia Biotech, Piscataway, N.J.) at the end. High molecular mass [^3H]-radioactivity was precipitated and counted.

HUVEC = experiment: Thymidine incorporation in HUVEC exposed to SCF; format: cell-based, human; conditions: basal medium, 48 hr
Experimental: as §1

HMVEC-d = experiment: Thymidine incorporation in HMVEC-d exposed to SCF; format: cell-based, human; conditions: basal medium, 48 hr
Experimental: as §1

HBMEC [1] = experiment: EC proliferation, HBMEC exposed to SCF; format: cell-based, human
HBMEC [2] = experiment: Matrigel tube formation (EC differentiation) assay, HBMEC; format: cell-based, human
Experimental: After the Matrigel (BD Biosciences) formed a solid gel in 24-well plates, serum-starved BMVEC-b cells were seeded on the gel surface at 10^5 cells per well and cultured in treatment medium in the presence or absence of SCF (20 ng/ml). Primary HBMEC were placed on the gel directly at 24×10^3 per well. Tubular formation was observed using an inverted phase contrast microscope, and images were captured at 4 and 18 hr after cell seeding. Each experiment was repeated two or three times.

[3] = tested on: c-Kit, MAPK and PI3K/Akt pathways in HUVEC; experiment: Immunoblot of SCF/c-Kit signal transduction, HUVEC; format: cell-based, human
Experimental: (§2) Confluent-grown ECs were treated with 50 ng/ml of SCF for 5, 10, 15, and 30 min after 24 hr of serum starvation. The ECs were collected with RIPA lysis buffer (Upstate, Charlottesville, Va.) containing 50 mM NaF, 1 mM Na3VO4, […], and Protease Inhibitor Cocktail (Roche). The antibodies were purchased from Cell Signaling Technology, Inc. (Beverly, Mass.) or as mentioned otherwise. All the primary antibodies were used in a 1:1000 dilution except for the anti-SCF antibody, which was used in a 1:2000 dilution. The primary antibodies were anti-phospho-c-Kit, anti-phospho-MEK1/2 and anti-MEK1/2, anti-phospho-p44/42 MAPK and anti-p44/42 MAPK, anti-phospho-SAPK/JNK and anti-SAPK/JNK, anti-phospho-p38 MAPK and anti-p38 MAPK, anti-phospho-Akt and anti-Akt, anti-phospho-mTOR and anti-mTOR, anti-phospho-4E-BP1 and anti-4E-BP1, anti-SCF and anti-VEGF (Chemicon, Temecula, Calif.), and anti-β-tubulin (Sigma). Re-blotting was done after membranes were stripped by re-blot kit (Chemicon). Tie2 detection in Matrigel plugs from the in vivo Matrigel assay was carried out by immunoprecipitation and immunoblotting. The gel plugs were carefully separated from muscle and skin and homogenized with RIPA lysis buffer. The resulting total tissue lysates ([…]) were immunoprecipitated with Tie2 antibody (Santa Cruz Biotechnology, Inc., Santa Cruz, Calif.) and then analyzed by immunoblot with Tie2 antibody (Zadeh et al. 2004 Am J Pathol 162:467-476).

SCID mice [4] = experiment: In vivo angiogenesis assay, subcutaneous Matrigel plugs with SCF or β-FGF; set-up: species or system mouse; conditions: subcutaneous Matrigel in adult SCID mice, fourteen days after injection
Experimental: as §2
All adult mice (6-8 weeks of age) were from NCI-Fredrick, and the animal experiments were conducted on an animal experimentation protocol approved by the NCI's animal protection committee (the “ACUC”). […]

SCID mice [5] = experiment: In vivo angiogenesis assay, matrigel plug with rmSCF (Example 3); set-up: species or system mouse; conditions: rmSCF 50 ng/ml, subcutaneous, 7 days, vs PBS control
Experimental: Recombinant mouse SCF (rmSCF) was used at 50 ng/ml in an in vivo angiogenesis assay. The matrigel plug containing SCF or PBS control was placed subcutaneously in SCID mice for 7 days, and the blood vessel formation within the gel was examined by H&E staining. […] In the higher magnification figure on the right side, the red blood cells inside of the newly formed vessel are indicated by an arrow.

bMVEC-B cells = experiment: bMVEC-B tube formation on matrigel (Example 3); format: cell-based; conditions: vs SCF-absent control
Description: Endothelial cell tube formation on extracellular matrix (ECM) is a commonly used in vitro model of EC differentiation and angiogenesis. We examined the SCF effects on the bMVEC-B cell tube formation.

[6] = SCF 50 ng/ml after serum starvation

B1: SCF: Stem cell factor protein (R&D Systems), ligand of the c-Kit receptor (protein)
chain: KEICGNPVTDNVKDITKLVANLPNDYMITLNYVAGMDVLPSHCWLRDMVIQLSLSLTTLLDKFSNISEGLSNYSIIDKLGKIVDDLVLCMEENAPKNIKESPKRPETRSFTPEEFFSIFNRSIDAFKDFMVASDTSDCVLSSTLGPEKDSRVSVTKPFMLPPVA
BMVEC-b proliferation increase (thymidine incorporation) (BMVEC-b; 1 ng of SCF per ml for 72 hr): approximately 6 fold
BMVEC-b proliferation increase (thymidine incorporation) (BMVEC-b; 10 ng of SCF per ml for 72 hr): ~7 fold
proliferation (thymidine incorporation) (BMVEC-b; BMVEC-b, 72 hr): stimulated proliferation in all three primary ECs in a dose-dependent manner
proliferation (thymidine incorporation) (HUVEC): stimulated proliferation in all three primary ECs in a dose-dependent manner
proliferation (thymidine incorporation) (HMVEC-d): stimulated proliferation in all three primary ECs in a dose-dependent manner
HBMEC proliferative response (HBMEC [1]; SCF from 0.1 to 10 ng per ml): dose-dependent growth
EC growth and survival with SCF alone (HBMEC [1]; without the addition of other cytokines such as VEGF): sufficient to sustain human brain microvascular EC and other EC cell growth and survival
time to mature appearing capillary-like structures (HBMEC [2]): ≤ 18 h
time to migration in Matrigel (HBMEC [2]): ≤ 4 h
duration of p38 MAPK activation ([3]; SCF 50 ng/ml): over 30 min
phosphorylation of 4E-BP1 ([3]; SCF 50 ng/ml): increased phosphorylation of 4E-BP1
phosphorylation of Akt ([3]; SCF 50 ng/ml): significantly enhanced
phosphorylation of MEK1/2 ([3]; SCF 50 ng/ml): dramatically increased
phosphorylation of p44/42 MAPK ([3]; SCF 50 ng/ml): dramatically increased
time of SAPK/JNK activation following SCF exposure ([3]; SCF 50 ng/ml): 10 to 15 min
duration of c-Kit auto-tyrosine-phosphorylation [3, 6]: 30 min
time of peak c-Kit auto-tyrosine-phosphorylation [3, 6]: 10 to 15 min
Tie2 protein in Matrigel plug (SCID mice [4]): high Tie2 expression
angiogenesis in Matrigel plug (H&E, vWF-positive vessels) (SCID mice [4]): high density of blood vessels; also recorded: induced substantial angiogenesis
blood vessel formation within the matrigel plug (H&E) (SCID mice [5]): stimulates angiogenesis
bMVEC-B tube formation on matrigel (bMVEC-B cells): enhanced bMVEC-B cell tube formation; also recorded: at much earlier time point and more completely

— patent publication US20060286117A1, “Neuronally expressed stem cell factor modulates angiogenesis and neural stem cell migration to areas of brain injury” (priority 2003, published 2006)
